Experimental data as given in article PMC3646915 (Journal of molecular biology, 2013).
Where two headings read alike, the source gives them in different places. Blank lines part the entries; values can stand above or below the binder they belong to.

B3: AtHsp18.5 tryptic fragment 11–150 (domain or fragment, Arabidopsis thaliana, UniProt O64564 11-150, looked up)
chain: RLSPGDRIWEPFELMNTFLDFPSPALFLSHHFPSLSREIFPQTSSSTVNTQLNWTETPTAHVFKAYLPGVDQDEVIAFVDEEGYLQICTGDNKFMSRFKLPNNALTDQVTAWMEDEFLVVFVEKDASSSPPQLPEIEENR
B4: AtHsp18.5 tryptic fragment 11–153 (domain or fragment, Arabidopsis thaliana, UniProt O64564 11-153, looked up)
chain: RLSPGDRIWEPFELMNTFLDFPSPALFLSHHFPSLSREIFPQTSSSTVNTQLNWTETPTAHVFKAYLPGVDQDEVIAFVDEEGYLQICTGDNKFMSRFKLPNNALTDQVTAWMEDEFLVVFVEKDASSSPPQLPEIEENRNVR
B6: AtHsp18.5 tryptic fragment 12–153 (domain or fragment, Arabidopsis thaliana, UniProt O64564 12-153, looked up)
chain: LSPGDRIWEPFELMNTFLDFPSPALFLSHHFPSLSREIFPQTSSSTVNTQLNWTETPTAHVFKAYLPGVDQDEVIAFVDEEGYLQICTGDNKFMSRFKLPNNALTDQVTAWMEDEFLVVFVEKDASSSPPQLPEIEENRNVR

How the values were obtained:
native MS [1] = biological target: the molecule itself; assay: native MS
[2] = biological target: T1, porcine mitochondrial malate dehydrogenase (porcine, UniProt P00346 25-338); assay: SEC
T1 sequence (looked up): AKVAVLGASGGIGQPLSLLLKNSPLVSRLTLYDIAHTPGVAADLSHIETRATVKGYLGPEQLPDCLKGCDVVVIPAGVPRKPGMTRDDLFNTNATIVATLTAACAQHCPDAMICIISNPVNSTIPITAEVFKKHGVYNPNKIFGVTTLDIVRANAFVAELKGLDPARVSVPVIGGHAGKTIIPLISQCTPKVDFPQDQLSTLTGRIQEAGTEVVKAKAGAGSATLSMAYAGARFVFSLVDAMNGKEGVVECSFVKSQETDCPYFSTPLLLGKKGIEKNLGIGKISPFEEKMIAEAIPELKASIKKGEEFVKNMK

firefly luciferase = firefly luciferase (firefly, UniProt P08659 1-550 = luciferase); assay: SEC
native MS [3] = biological target: the molecule itself; assay: native MS; remark: listed apart in the source
[4] = biological target: B6; assay: native MS
[5] = biological target: B4; assay: native MS
[6] = biological target: B3; assay: native MS
native gel or EMSA = biological target: the molecule itself; assay: native gel or EMSA
[7] = biological target: the molecule itself; assay: native gel or EMSA + cross-linking + native MS + AUC

Sequence of firefly luciferase (P08659 whole entry): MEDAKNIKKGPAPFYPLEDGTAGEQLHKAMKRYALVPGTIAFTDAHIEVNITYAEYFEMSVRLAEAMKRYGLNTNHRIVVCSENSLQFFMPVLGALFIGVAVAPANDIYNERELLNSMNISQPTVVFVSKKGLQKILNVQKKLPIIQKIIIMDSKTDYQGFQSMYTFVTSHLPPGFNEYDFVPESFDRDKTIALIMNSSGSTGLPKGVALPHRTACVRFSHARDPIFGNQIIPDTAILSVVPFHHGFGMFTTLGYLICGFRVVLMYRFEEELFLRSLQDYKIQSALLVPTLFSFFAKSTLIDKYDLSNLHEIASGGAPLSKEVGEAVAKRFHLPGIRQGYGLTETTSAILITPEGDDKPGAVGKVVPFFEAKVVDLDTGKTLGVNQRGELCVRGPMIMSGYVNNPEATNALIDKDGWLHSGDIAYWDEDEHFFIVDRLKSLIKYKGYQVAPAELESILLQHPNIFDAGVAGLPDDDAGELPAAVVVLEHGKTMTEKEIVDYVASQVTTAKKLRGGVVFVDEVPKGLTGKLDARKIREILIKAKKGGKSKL

B1: AtHsp18.5 truncation mutant 25–153 (domain or fragment, Arabidopsis thaliana, UniProt O64564 25-153, looked up)
chain: MNTFLDFPSPALFLSHHFPSLSREIFPQTSSSTVNTQLNWTETPTAHVFKAYLPGVDQDEVIAFVDEEGYLQICTGDNKFMSRFKLPNNALTDQVTAWMEDEFLVVFVEKDASSSPPQLPEIEENRNVR
binding result (native MS [1]): binds

binding result [2]: binds
binding result (firefly luciferase): binds
B2: PsHsp18.1, cytosolic class I sHSP from Pisum sativum (natural protein, UniProt P19243 1-158, looked up)
chain: MSLIPSFFSGRRSNVFDPFSLDVWDPLKDFPFSNSSPSASFPRENPAFVSTRVDWKETPEAHVFKADLPGLKKEEVKVEVEDDRVLQISGERSVEKEDKNDEWHRVERSSGKFLRRFRLPENAKMDKVKASMENGVLTVTVPKEEIKKAEVKSIEISG

Binder: B3
binding result (native MS [3]): binds

Binder: B4
binding result (native MS [3]): binds

binding result [4]: binds
binding result [5]: binds
binding result [6]: binds
B5: AtHsp18.5 tryptic fragment 48–153 (domain or fragment, Arabidopsis thaliana, UniProt O64564 48-153, looked up)
chain: EIFPQTSSSTVNTQLNWTETPTAHVFKAYLPGVDQDEVIAFVDEEGYLQICTGDNKFMSRFKLPNNALTDQVTAWMEDEFLVVFVEKDASSSPPQLPEIEENRNVR

Binder: B6
binding result (native MS [3]): binds

B7: AtHsp18.5 with N-terminal Strep II tag (natural protein, Arabidopsis thaliana, UniProt O64564 1-162, looked up)
chain: MSMIPISNRRRLSPGDRIWEPFELMNTFLDFPSPALFLSHHFPSLSREIFPQTSSSTVNTQLNWTETPTAHVFKAYLPGVDQDEVIAFVDEEGYLQICTGDNKFMSRFKLPNNALTDQVTAWMEDEFLVVFVEKDASSSPPQLPEIEENRNVRVVEITGDDD
stoichiometry N (native gel or EMSA): 2

B8: AtHsp18.5 with Cys98 substituted by Ala (natural protein, Arabidopsis thaliana, UniProt O64564 1-162, looked up)
chain: MSMIPISNRRRLSPGDRIWEPFELMNTFLDFPSPALFLSHHFPSLSREIFPQTSSSTVNTQLNWTETPTAHVFKAYLPGVDQDEVIAFVDEEGYLQIATGDNKFMSRFKLPNNALTDQVTAWMEDEFLVVFVEKDASSSPPQLPEIEENRNVRVVEITGDDD
stoichiometry N [7]: 2

B9: AtHsp18.5 with C-terminal Strep II tag (natural protein, Arabidopsis thaliana, UniProt O64564 1-162, looked up)
chain: MSMIPISNRRRLSPGDRIWEPFELMNTFLDFPSPALFLSHHFPSLSREIFPQTSSSTVNTQLNWTETPTAHVFKAYLPGVDQDEVIAFVDEEGYLQICTGDNKFMSRFKLPNNALTDQVTAWMEDEFLVVFVEKDASSSPPQLPEIEENRNVRVVEITGDDD
stoichiometry N (native gel or EMSA): 2
